{"source": "paper PMC7495481", "about": "“Sequence specificity analysis of the SETD2 protein lysine methyltransferase and discovery of a SETD2 super-substrate” (Communications Biology, 2020)", "molecules": {"B1": {"name": "STAT1: known non-histone substrate of SETD2, methylated at K525 (protein, UniProt P42224 2-750, looked up)", "Signal transducer and …": "SQWYELQQLDSKFLEQVHQLYDDSFPMEIRQYLAQWLEKQDWEHAANDVSFATIRFHDLLSQLDDQYSRFSLENNFLLQHNIRKSKRNLQDNFQEDPIQMSMIIYSCLKEERKILENAQRFNQAQSGNIQSTVMLDKQKELDSKVRNVKDKVMCIEHEIKSLEDLQDEYDFKCKTLQNREHETNGVAKSDQKQEQLLLKKMYLMLDNKRKEVVHKIIELLNVTELTQNALINDELVEWKRRQQSACIGGPPNACLDQLQNWFTIVAESLQQVRQQLKKLEELEQKYTYEHDPITKNKQVLWDRTFSLFQQLIQSSFVVERQPCMPTHPQRPLVLKTGVQFTVKLRLLVKLQELNYNLKVKVLFDKDVNERNTVKGFRKFNILGTHTKVMNMEESTNGSLAAEFRHLQLKEQKNAGTRTNEGPLIVTEELHSLSFETQLCQPGLVIDLETTSLPVVVISNVSQLPSGWASILWYNMLVAEPRNLSFFLTPPCARWAQLSEVLSWQFSSVTKRGLNVDQLNMLGEKLLGPNASPDGLIPWTRFCKENINDKNFPFWLWIESILELIKKHLLPLWNDGCIMGFISKERERALLKDQQPGTFLLRFSESSREGAITFTWVERSQNGGEPDFHAVEPYTKKELSAVTFPDIIRNYKVMAAENIPENPLKYLYPNIDKDHAFGKYYSRPKEAPEPMELDGPKGTGYIKTELISVSEVHPSRLQTTDNLLPMSPEEFDEVSRIVGSVEFDSMMNTV"}}, "key": {"[1]": {"target": "T1, SETD2 (Homo sapiens, UniProt Q9BYW2)", "T1 construct": "SETD2 catalytic SET domain (amino acids 1347–1711, UniProt No: Q9BYW2); made in house; host or cells: E. coli", "T1 sequence (Q9BYW2 1347-1711)": "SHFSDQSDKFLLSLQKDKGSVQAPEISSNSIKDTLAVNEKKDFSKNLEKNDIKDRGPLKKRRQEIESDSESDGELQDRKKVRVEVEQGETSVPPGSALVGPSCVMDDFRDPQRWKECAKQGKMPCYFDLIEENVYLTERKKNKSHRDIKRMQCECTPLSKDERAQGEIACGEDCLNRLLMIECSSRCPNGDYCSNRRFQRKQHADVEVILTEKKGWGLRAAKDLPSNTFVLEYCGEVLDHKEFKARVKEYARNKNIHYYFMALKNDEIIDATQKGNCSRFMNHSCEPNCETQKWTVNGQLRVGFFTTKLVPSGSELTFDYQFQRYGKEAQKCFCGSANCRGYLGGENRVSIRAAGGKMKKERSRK", "conditions": "H3K36 peptide, previously determined under the same conditions; ref [30]; cited from earlier work"}, "[2]": {"target": "T1, SETD2", "assay": "Protein methylation assay (non-histone proteins, GST fusions, nucleosomes, H3.1)", "format": "biochemical", "conditions": "equal amounts; 6 µM SETD2, 0.76 µM AdoMet, 3 h, 25 °C; autoradiography", "description": "The 9 new putative non-histone substrates of SETD2 were cloned into a pGEX-6p2 bacterial expression vector for protein expression. Six of them could be expressed and purified through glutathione sepharose beads (Table 1). For comparison, the super-substrate sequence was cloned with a […] GST-tag (ssK36-GST) to mimic the natural setting of the H3K36 site in the N-terminal tail of histone 3. Similar amounts of the purified non-histone substrate proteins and the ssK36-GST protein were loaded on an SDS-gel and stained with Coomassie BB (Supplementary Fig. 6a). Afterward protein methylation reactions were conducted using radioactively labeled AdoMet and the radioactive signal of the methyl group transfer was detected by autoradiography (Supplementary Fig. 6b). […] Next, we aimed to confirm the FBN1 methylation at the predicated target lysine K666. For this, a K666R mutation was introduced and the wildtype and mutant FBN1 proteins were purified by affinity chromatography. […]\nProtein methylation reactions were performed in 40 µl methylation buffer containing 0.76 µM radioactive labeled AdoMet (PerkinElmer), approximately 20 µg of substrate protein and 6 µM SETD2 enzyme (if not otherwise indicated) for 3 h at 25 °C. […] The radioactive methylation signal was detected by a hyperfilm^TM high performance autoradiography film (GE Healthcare) at −80 °C in the dark. […]"}, "[3]": {"target": "T1, SETD2", "assay": "Western Blot detection of GST fusion methylation by SETD2 with H3K36me3 antibody", "format": "biochemical", "conditions": "incubated with SETD2 and unlabeled AdoMet", "experimental": "Supplementary Fig. 9: Control experiments related to Fig. 6c. a Validation of the detection of ssK36-GST methylation by the α-H3K36me3 antibody. The purified ssK36-GST and H3K36-GST substrates were incubated with SETD2 and unlabeled AdoMet. Afterwards, the proteins were separated by SDS-PAGE and blotted. Western Blot […]\nof H3K36-GST methylation by SETD2 observed in Fig. 6a and 6b. Equal loading of the GST-tagged proteins is shown in the Coomassie BB stain of a parallel gel, equal loading of SETD2 is shown in the Ponceau S stain of the Western Blot membrane. b YFP-tagged ssK36 and H3K36 substrates were transfected into HEK293 cells together with DsRed-tagged SETD2 or DsRed empty vector (EV). The expression levels of DsRed-SETD2 and DsRed from EV were determined […]\nExample of the FACS primary data for DsRed expression. d Average fraction of DsRed positive cells in three independent experiments normalized to DsRed-SETD2 + YFP-ssK36. EV, empty […]\n(1 picture or pasted object on this page, not shown here)"}, "[4]": {"target": "T1, SETD2", "assay": "Peptide SPOT array methylation of reported SETD2 substrates", "format": "biochemical", "conditions": "SPOT array on cellulose membrane; 0.76 µM radioactive AdoMet, 3–6 µM SETD2, 60 min, pH 9; autoradiography", "experimental": "Next, the SETD2 activity was tested on peptide SPOT arrays containing fifteen amino acid long peptides immobilized on a cellulose membrane. As reported SETD2 substrates, the H3K36 (29–43), α -tubulin (33–47) and STAT1 (518–532) peptides (with the target lysine centered in each case) were included, and peptides with the corresponding target lysine mutated to alanine were used as negative controls. The peptide array was incubated in methylation buffer supplemented with SETD2 and radioactively labeled AdoMet. […] Methylation of the previously reported non-histone substrates α -tubulin and STAT1 was not detectable at the peptide level and, therefore, they were excluded from further investigation.\nPeptide arrays containing fifteen amino acid long peptides were synthesized using the SPOT synthesis method[48] with an Autospot peptide array synthesizer (Intavis AG, Köln, Germany). After synthesis, the obtained membranes were pre-incubated in methylation buffer (20 mM Tris/HCl pH 9, 0.01% Triton X-100, 10 mM DTT, 1.5 mM MgCl2) for 5 min on a shaker. Thereafter, the membranes were incubated in methylation buffer supplemented with 0.76 µM radioactively labeled AdoMet (PerkinElmer) and 3–6 µM SETD2 enzyme for 60 min on a shaker. After methylation, the membranes were washed 5 times for 5 min in wash buffer (100 mM NH4HCO3, 1% SDS) and incubated in amplify NAMP100V (GE Healthcare) for 5 min. This was followed by the exposure of the membranes to a hyperfilm^TM high performance autoradiography (GE Healthcare) film at −80 °C in the dark. The films were developed with an Optimax Typ TR machine after different exposue times. For quantification the signal intensities were measured with the Phoretix^TM software and analyzed with Microsoft Excel.\nSupplementary Fig. 1: SETD2 protein and catalytic activity. a Purified His6-tagged SETD2 SET domain (1347-1711) was separated on an SDS-gel and […]\nstained with Coomassie BB. […]\ntubulin (33-47), STAT1 (518-532) and their corresponding target lysine to alanine mutant peptides were synthesized on a cellulose membrane. The membrane was incubated in methylation buffer supplemented with radioactively labeled AdoMet and SETD2. The signal of the transferred radioactive methyl groups was visualized by autoradiography."}, "[5]": {"target": "T1, SETD2", "conditions": "ref [18],[19]; cited from earlier work", "description": "SETD2 is a PKMT initially in 2005 identified to methylate H3K36[8]. So far, lysine 36 in H3 was still the best substrate known for this enzyme at the peptide level. At the protein level, H3 methylation by SETD2 is weak, but it is strongly stimulated in the context of a nucleosome as shown here by us and previously by others. […] In thi ..."}}, "note": "Ends that are not written are not given here.", "data": [{"molecule": "H3K36 peptide: H3K36 (27–43) peptide purchased from Intavis AG (KSAPATGGVKKPHRYRP; UniProt P68431 28-44, looked up, fragment)", "values": [{"measurement": "Km", "setting": "[1]", "value": 65, "unit": "µM"}]}, {"molecule": "H3K36-GST: H3K36 (29–43) sequence cloned with C-terminal GST-tag (APATGGVKKPHRYRP; also: C-terminal GST tag fusion; UniProt P68431 30-44, looked up, fragment)", "values": [{"measurement": "methylation of GST fusion proteins (in words)", "setting": "[2]", "value": "no signal was detected"}, {"measurement": "H3K36me3 antibody Western Blot signal", "setting": "[3]", "value": "very weak signal"}]}, {"molecule": "B1", "values": [{"measurement": "peptide spot methylation signal", "setting": "[4]", "value": "did not show a detectable peptide methylation signal"}, {"measurement": "reported methylation by SETD2 compared with H3K36", "setting": "[5]", "value": "weaker than H3K36"}]}]}
